The values that follow come from paper PMC12510807, “MUC1 drives ferroptosis resistance in ICC via Src‐mediated FSP1 deubiquitination and myristoylation” (Clinical and Translational Medicine, 2025).

The assay deals with T1, recombinant Src (UniProt P12931 1-536).
T1 construct: the printed kinase domain limits 249-536 fit the 536-residue human protein; the tag on Src may differ between the three pull-downs; also called purified Src; source: recombinant, purified
The experiment in a line: pull-down; in vitro GST pull-down with recombinant or purified proteins; which partner bore GST is not told. The note with it: both partners purified.

B1: purified NMT1 (enzyme, UniProt P30419 1-496, looked up)
chain: MADESETAVKPPAPPLPQMMEGNGNGHEHCSDCENEEDNSYNRGGLSPANDTGAKKKKKKQKKKKEKGSETDSAQDQPVKMNSLPAERIQEIQKAIELFSVGQGPAKTMEEASKRSYQFWDTQPVPKLGEVVNTHGPVEPDKDNIRQEPYTLPQGFTWDALDLGDRGVLKELYTLLNENYVEDDDNMFRFDYSPEFLLWALRPPGWLPQWHCGVRVVSSRKLVGFISAIPANIHIYDTEKKMVEINFLCVHKKLRSKRVAPVLIREITRRVHLEGIFQAVYTAGVVLPKPVGTCRYWHRSLNPRKLIEVKFSHLSRNMTMQRTMKLYRLPETPKTAGLRPMETKDIPVVHQLLTRYLKQFHLTPVMSQEEVEHWFYPQENIIDTFVVENANGEVTDFLSFYTLPSTIMNHPTHKSLKAAYSFYNVHTQTPLLDLMSDALVLAKMKGFDVFNALDLMENKTFLEKLKFGIGDGNLQYYLYNWKCPSMGAEKVGLVLQ
notes: Purified NMT1 protein of the GST pull-down with Src; source: purified
As for B1, the binding result is “binds”.
